{"source": "patent US20230257458A1", "about": "(SUNSHINE LAKE PHARMA, published 2023)", "binders": {"B1": {"name": "3-6A4 (antibody, human IgG1, kappa, V domains shown)", "VH": "QIQLVQSGPELKKPGETVKISCKASGYTFTTNGINWVKQAAGKGLKWMGWINTNTGEPTNAEELKGRFAFSLETSASTAYLQINNLKNEDAAIYFCAREGAFGLDYWGQGTSVTVSS", "VL": "SIVMTQSPKFLLVSAGDRVIITCKASQSVSNDVVWYQQKPGQSPKLLIYYGSHRNTGVPTRFTGSGYGTDFTFTISTVQAEDLAVYFCQQDFFSPWTFGGGTKLEIKR", "notes": "also called 3-6A4 antibody; 3-6A4 mAb"}}, "key": {"[1]": {"target": "T1, IL-11-Fc protein (UniProt P20809 22-199, limits assumed)", "T1 construct": "also called IL-11 recombinant protein with Fc tag; not shown: Fc tag", "T1 sequence (looked up)": "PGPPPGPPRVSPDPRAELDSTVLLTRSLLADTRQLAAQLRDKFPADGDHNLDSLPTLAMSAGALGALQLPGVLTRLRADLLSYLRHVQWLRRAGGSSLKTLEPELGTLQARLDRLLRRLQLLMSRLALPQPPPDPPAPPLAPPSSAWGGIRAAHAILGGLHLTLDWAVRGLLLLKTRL", "assay": "flow competition: IL-11-Fc + antibody gradient on membrane-IL-11R CHO cells; 3-6A4 antibody", "from_the_text": "The secondary antibody used in the detection was a secondary antibody conjugated with a FITC fluorophore (Goat-anti-Fc-FITC) (Abcam, ab98529)."}, "[2]": {"target": "T2, IL-11 protein (UniProt P20809 22-199, limits assumed)", "T2 construct": "also called IL-11 antigen", "T2 sequence (looked up)": "T1 sequence (looked up)", "assay": "flow competition: IL-11 + antibody on IL-11R cells; lower = more blocking", "from_the_text": "(§1) Cell lines with high secretion of specific antibody were selected for expanded culture and cryopreservation."}, "[3]": {"target": "T3, recombinant OSM (Genscript-z03132) (UniProt P13725 26-234, limits assumed)", "T3 sequence (looked up)": "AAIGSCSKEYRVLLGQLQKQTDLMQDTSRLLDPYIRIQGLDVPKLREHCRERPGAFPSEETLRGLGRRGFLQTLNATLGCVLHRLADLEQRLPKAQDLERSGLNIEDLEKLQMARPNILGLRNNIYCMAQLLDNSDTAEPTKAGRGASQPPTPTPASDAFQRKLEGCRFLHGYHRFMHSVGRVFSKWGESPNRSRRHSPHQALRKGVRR", "assay": "ELISA, cytokine coated"}, "[4]": {"target": "T4, recombinant IL-31 (Peprotech, 200-31) (UniProt Q6EBC2 24-164)", "T4 sequence (looked up)": "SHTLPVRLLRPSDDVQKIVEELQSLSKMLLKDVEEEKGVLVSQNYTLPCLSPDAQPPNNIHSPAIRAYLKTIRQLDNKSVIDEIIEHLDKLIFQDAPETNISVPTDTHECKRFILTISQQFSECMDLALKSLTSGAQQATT", "assay": "ELISA, cytokine coated"}, "[5]": {"target": "T5, recombinant CLC (R&D systems, 962-CL-050) (UniProt Q9UBD9 28-225)", "T5 sequence (looked up)": "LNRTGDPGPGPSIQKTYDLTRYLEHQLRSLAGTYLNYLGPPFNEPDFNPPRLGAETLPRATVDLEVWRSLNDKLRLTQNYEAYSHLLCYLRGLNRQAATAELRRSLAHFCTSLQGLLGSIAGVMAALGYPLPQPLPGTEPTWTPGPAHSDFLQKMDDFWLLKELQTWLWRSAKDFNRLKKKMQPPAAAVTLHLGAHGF", "assay": "ELISA, cytokine coated"}, "[6]": {"target": "T6, recombinant IL-6 (Sinobiological-10395-HNAE) (UniProt P05231 30-212)", "assay": "ELISA, cytokine coated"}, "[7]": {"target": "T7, recombinant IL-27 (R&D systems, 2526-IL-010) (UniProt Q8NEV9 29-243; Q14213 21-229)", "T7 sequence (looked up) 1": "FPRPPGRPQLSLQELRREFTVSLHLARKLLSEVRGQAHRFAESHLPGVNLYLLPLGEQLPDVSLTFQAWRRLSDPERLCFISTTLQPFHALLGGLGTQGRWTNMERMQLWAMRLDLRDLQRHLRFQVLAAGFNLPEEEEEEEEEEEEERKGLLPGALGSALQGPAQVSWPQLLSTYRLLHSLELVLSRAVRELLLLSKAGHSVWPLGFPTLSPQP", "T7 sequence (looked up) 2": "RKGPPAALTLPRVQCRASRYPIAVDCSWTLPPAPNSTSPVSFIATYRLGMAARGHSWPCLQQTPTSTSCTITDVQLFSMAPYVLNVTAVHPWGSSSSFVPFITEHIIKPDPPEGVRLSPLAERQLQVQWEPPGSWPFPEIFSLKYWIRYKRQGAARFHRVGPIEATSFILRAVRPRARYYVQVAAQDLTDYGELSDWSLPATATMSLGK", "assay": "ELISA, cytokine coated"}, "[8]": {"target": "T8, recombinant LIF (Peprotech, 300-05) (UniProt P15018 23-202)", "T8 sequence (P15018 23-202 limits assumed)": "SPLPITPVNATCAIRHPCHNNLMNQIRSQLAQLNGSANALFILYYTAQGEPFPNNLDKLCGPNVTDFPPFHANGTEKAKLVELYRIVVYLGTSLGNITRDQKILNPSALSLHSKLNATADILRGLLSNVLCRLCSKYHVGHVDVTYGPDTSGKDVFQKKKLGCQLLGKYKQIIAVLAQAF", "assay": "ELISA, cytokine coated"}, "[9]": {"target": "T9, recombinant CNTF (R&D systems, 257-NT-010) (UniProt P26441 2-200)", "T9 sequence (looked up)": "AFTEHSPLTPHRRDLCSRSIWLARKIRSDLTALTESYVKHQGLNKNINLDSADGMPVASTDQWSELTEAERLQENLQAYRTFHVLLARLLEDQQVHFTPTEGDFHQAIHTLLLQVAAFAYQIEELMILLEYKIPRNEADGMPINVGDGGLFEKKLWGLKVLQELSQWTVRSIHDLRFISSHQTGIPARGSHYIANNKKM", "assay": "ELISA, cytokine coated"}, "[10]": {"target": "T10, recombinant CT-1 (R&D systems, 612-CD-010) (UniProt Q16619 2-201, limits assumed)", "T10 sequence (looked up)": "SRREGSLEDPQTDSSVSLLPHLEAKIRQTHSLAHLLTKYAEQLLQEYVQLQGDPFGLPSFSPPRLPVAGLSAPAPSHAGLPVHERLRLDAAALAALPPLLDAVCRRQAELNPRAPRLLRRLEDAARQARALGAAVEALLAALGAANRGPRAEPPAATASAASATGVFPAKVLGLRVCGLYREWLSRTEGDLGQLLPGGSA", "assay": "ELISA, cytokine coated"}, "[11]": {"target": "T11, recombinant IL-11 (LSBio, LS-G132887-10) (UniProt P20809 22-199)", "T11 construct": "also called IL-11 cytokine", "T11 sequence (looked up)": "T1 sequence (looked up)", "assay": "ELISA, cytokine coated"}, "[12]": {"target": "T3, recombinant OSM (Genscript-z03132)", "assay": "ELISA, cytokine coated", "remark": "listed apart in the source"}, "[13]": {"target": "T4, recombinant IL-31 (Peprotech, 200-31)", "assay": "ELISA, cytokine coated", "remark": "listed apart in the source"}, "[14]": {"target": "T5, recombinant CLC (R&D systems, …)", "assay": "ELISA, cytokine coated", "remark": "listed apart in the source"}, "[15]": {"target": "T6, recombinant IL-6 …", "assay": "ELISA, cytokine coated", "remark": "listed apart in the source"}, "[16]": {"target": "T7, recombinant IL-27 (R&D systems, …)", "assay": "ELISA, cytokine coated", "remark": "listed apart in the source"}, "[17]": {"target": "T8, recombinant LIF (Peprotech, 300-05)", "assay": "ELISA, cytokine coated", "remark": "listed apart in the source"}, "[18]": {"target": "T9, recombinant CNTF (R&D systems, …)", "assay": "ELISA, cytokine coated", "remark": "listed apart in the source"}, "[19]": {"target": "T10, recombinant CT-1 (R&D systems, …)", "assay": "ELISA, cytokine coated", "remark": "listed apart in the source"}, "[20]": {"target": "T2, IL-11 protein", "assay": "ELISA, monoclonal hybridoma supernatant on IL-11", "from_the_text": "as §1"}, "[21]": {"target": "T12, recombinant human protein antigen hu-IL-11-His tag (human, UniProt P20809 22-199)", "T12 construct": "Expressed in CHO, Ni column and Superdex75; not shown: His tag", "T12 sequence (looked up)": "T1 sequence (looked up)", "assay": "BLI, IL-11 (His tag) on Ni-NTA sensor, antibody as analyte", "method": "Bio-Layer Interferometry (BLI) was used for binding affinity determination. […] The analytes were diluted in 7 concentration gradients, the binding time was 60 s and the dissociation time was 1000 s. The buffer was 20 mM PBS, 0.15M NaCl, 0.1% BSA, 0.05% Tween 20, pH 7."}}}
{"binder": "B1", "values": [{"measurement": "IC50", "setting": "[1]", "result": "~7", "unit": "µg/mL"}, {"measurement": "FITC Mean", "setting": "[2]", "result": 3040}, {"measurement": "OD450 nm", "setting": "[3]", "result": 0.102}, {"measurement": "OD450 nm", "setting": "[4]", "result": 0.088}, {"measurement": "OD450 nm", "setting": "[5]", "result": 0.042}, {"measurement": "OD450 nm", "setting": "[6]", "result": 0.039}, {"measurement": "OD450 nm", "setting": "[7]", "result": 0.035}, {"measurement": "OD450 nm", "setting": "[8]", "result": 0.084}, {"measurement": "OD450 nm", "setting": "[9]", "result": 0.064}, {"measurement": "OD450 nm", "setting": "[10]", "result": 0.041}, {"measurement": "OD450 nm", "setting": "[11]", "result": 1.88}, {"measurement": "binding result", "setting": "[12]", "result": "no binding"}, {"measurement": "binding result", "setting": "[13]", "result": "no binding"}, {"measurement": "binding result", "setting": "[14]", "result": "no binding"}, {"measurement": "binding result", "setting": "[15]", "result": "no binding"}, {"measurement": "binding result", "setting": "[16]", "result": "no binding"}, {"measurement": "binding result", "setting": "[17]", "result": "no binding"}, {"measurement": "binding result", "setting": "[18]", "result": "no binding"}, {"measurement": "binding result", "setting": "[19]", "result": "no binding"}, {"measurement": "OD450", "setting": "[20]", "result": 1.58}, {"measurement": "Kd", "setting": "[21]", "result": 0.0393, "unit": "nM"}, {"measurement": "koff", "setting": "[21]", "result": "4.16e-05", "unit": "s⁻¹"}, {"measurement": "kon", "setting": "[21]", "result": "1.06e+06", "unit": "M⁻¹ s⁻¹"}]}
